Source: paper PMC12041282

Molecular target: ectodomain of the SFTSV Gn glycoprotein (amino acids 20-453), Gn-his (SFTSV)
Test: SPR

Recombinant human LRP1 CLII-Fc (Fc fusion)
Kd: 0.0168 µM
